From US20140206846A1

Experiments:
[1] = biological target: T1, human VEGF (human), P15692; experiment: Biacore SPR, Fab captured by anti-light chain antibody, VEGF as analyte; settings: remark: other sources report otherwise
T1 chain: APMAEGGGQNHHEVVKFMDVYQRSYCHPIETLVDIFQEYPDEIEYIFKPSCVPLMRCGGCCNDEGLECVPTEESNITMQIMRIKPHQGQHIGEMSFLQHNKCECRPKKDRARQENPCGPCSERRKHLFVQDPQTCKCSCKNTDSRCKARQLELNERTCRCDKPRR

[2] = biological target: T1, human VEGF (human), P15692; experiment: Biacore; settings: bispecific antibody; chains VL:VH; remark: other sources report otherwise

B1: VH6L (bispecific antibody, V domains shown)
VL: NIQKTQSPSSLSASVGDRVTITCRALWHISSYLAWYQQKPGKAPKLLIYAASHLHYGVPSRFSGSGSGTDFTLTISSLQPEDFATYYCQQYSGLPYTFGQGTKVEIK
VH: YYQLVESGGGLVQPGGSLRLSCAADGFLFSGYAMSWIRQAPGKGLEWIGQISGSGGSTVYNYNVLGRFTISRDNSKNTLYLQMNSLRAEDTAVYYCARDTGYFDHWGQGTLVTVSS
- Kd [1]: 7.8 nM
- koff [2]: 0.000738 s⁻¹
